Data reported in the RNAGym collection of RNA variant scans (doi:10.1093/molbev/msab373).

B1: Azoarcus group I ribozyme (parent)
chain: GUGCCUUGCGCCGGGAAACCACGCAAGGGAUGGUGUCAAAUUCGGCGAAACCUAAGCGCCCGCCCGGGCGUAUGGCAACGCCGAGCCAAGCUUCGGCGCCUGCGCCGAUGAAGGUGUAGAGACUAGACGGCACCCACCUAAGGCAAACGCUAUGGUGAAGGCAUAGUCCAGGGAGUGGCGAAAGUCACACAAACCGG

Variants of: B1
Experiment: reverse-splicing fitness (ratio to wild type); higher = more active; in vitro selection; Mg2+ level not given
How it was run: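 An in vitro group I ribozyme library with randomized positions was T7-transcribed and gel-purified. In triplicate, 10 pmol RNA in EPPS pH 7.5 was reacted with 50 pmoles of a 30-nt RNA substrate for 1 h at 37 °C across several added MgCl2 levels (1–48 mM), then stopped with EDTA. Products were reverse transcribed from a substrate-complementary primer, PCR-amplified and sequenced (HiSeq 4000). Fitness is a variant's read proportion after selection over that before, normalised to wild type.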

With GUGCCUUGCGCCGGGAAACCACGCAAGGGAUGGUGUCAAAUUCGGCGAAACCUAAGCGCCCGCCCGGGCGUAUGGCAACGCUGAGCCAAGCUUCGGCGCCUGCGCCGAUGGAGGUGUAGUGACUAGACGGCACCCACCUAAGGCGAACGUUAUGGUGAAGGCAUAGUCAAGGGAGAGGCGAAAGUCACACAAACCGG as the variant, how does the reverse-splicing fitness read?
The reverse-splicing fitness was 0.00487.

With GUGCCUUGCGCCGGGAAACCACGCAAGGGAUGGUGUCAAAUUCGGCGAAACCUAAGCGCCCGCCCGGGCGUAUGGCAACGCUGAGCCAAGCUUCGGCGCCUGCGCCGAUGGAGGUGUAGUGACUAGACGGCACCCACCUAAGGCGAACGUUAUGGUGAAGGCAUAGUCAAGGGAGCGGCGAAAGUCACACAAACCGG as the variant, how does the reverse-splicing fitness read?
The reverse-splicing fitness was 0.00369.

With GUGCCUUGCGCCGGGAAACCACGCAAGGGAUGGUGUCAAAUUCGGCGAAACCUAAGCGCCCGCCCGGGCGUAUGGCAACGCUGAGCCAAGCUUCGGCGCCUGCGCCGAUGGAGGUGUAGUGACUAGACGGCACCCACCUAAGGCGAACGUUAUGGUGAAGGCAUAGUCAAGGGAGGGGCGAAAGUCACACAAACCGG as the variant, how does the reverse-splicing fitness read?
Its reverse-splicing fitness is 0.00217.

With GUGCCUUGCGCCGGGAAACCACGCAAGGGAUGGUGUCAAAUUCGGCGAAACCUAAGCGCCCGCCCGGGCGUAUGGCAACGCUGAGCCAAGCUUCGGCGCCUGCGCCGAUGGAGGUGUAGUGACUAGACGGCACCCACCUAAGGCGAACGUUAUGGUGAAGGCAUAGUCGAGGGAGUGGCGAAAGUCACACAAACCGG as the variant, how does the reverse-splicing fitness read?
The reverse-splicing fitness was 0.00615.

For GUGCCUUGCGCCGGGAAACCACGCAAGGGAUGGUGUCAAAUUCGGCGAAACCUAAGCGCCCGCCCGGGCGUAUGGCAACGCUGAGCCAAGCUUCGGCGCCUGCGCCGAUGGAGGUGUAGUGACUAGACGGCACCCACCUAAGGCGAACGUUAUGGUGAAGGCAUAGUCGAGGGAGAGGCGAAAGUCACACAAACCGG, which reverse-splicing fitness is on record?
The reverse-splicing fitness was 0.00913.

For GUGCCUUGCGCCGGGAAACCACGCAAGGGAUGGUGUCAAAUUCGGCGAAACCUAAGCGCCCGCCCGGGCGUAUGGCAACGCUGAGCCAAGCUUCGGCGCCUGCGCCGAUGGAGGUGUAGUGACUAGACGGCACCCACCUAAGGCGAACGUUAUGGUGAAGGCAUAGUCGAGGGAGCGGCGAAAGUCACACAAACCGG, which reverse-splicing fitness is on record?
The reverse-splicing fitness was 0.00432.

Which reverse-splicing fitness does the source give for GUGCCUUGCGCCGGGAAACCACGCAAGGGAUGGUGUCAAAUUCGGCGAAACCUAAGCGCCCGCCCGGGCGUAUGGCAACGCUGAGCCAAGCUUCGGCGCCUGCGCCGAUGGAGGUGUAGUGACUAGACGGCACCCACCUAAGGCGAACGUUAUGGUGAAGGCAUAGUCGAGGGAGGGGCGAAAGUCACACAAACCGG here?
Its reverse-splicing fitness is 0.00189.

Which reverse-splicing fitness does the source give for GUGCCUUGCGCCGGGAAACCACGCAAGGGAUGGUGUCAAAUUCGGCGAAACCUAAGCGCCCGCCCGGGCGUAUGGCAACGCUGAGCCAAGCUUCGGCGCCUGCGCCGAUGGAGGUGUAGUGACUAGACGGCACCCACCUAAGGCGAACGUUAUGGUGAAGGCAUAGUCUAGGGAGUGGCGAAAGUCACACAAACCGG here?
The reverse-splicing fitness was 0.00469.

For GUGCCUUGCGCCGGGAAACCACGCAAGGGAUGGUGUCAAAUUCGGCGAAACCUAAGCGCCCGCCCGGGCGUAUGGCAACGCUGAGCCAAGCUUCGGCGCCUGCGCCGAUGGAGGUGUAGUGACUAGACGGCACCCACCUAAGGCGAACGUUAUGGUGAAGGCAUAGUCUAGGGAGAGGCGAAAGUCACACAAACCGG, which reverse-splicing fitness is on record?
The reverse-splicing fitness was 0.00391.

With GUGCCUUGCGCCGGGAAACCACGCAAGGGAUGGUGUCAAAUUCGGCGAAACCUAAGCGCCCGCCCGGGCGUAUGGCAACGCUGAGCCAAGCUUCGGCGCCUGCGCCGAUGGAGGUGUAGUGACUAGACGGCACCCACCUAAGGCGAACGUUAUGGUGAAGGCAUAGUCUAGGGAGCGGCGAAAGUCACACAAACCGG as the variant, how does the reverse-splicing fitness read?
The reverse-splicing fitness was 0.00348.

With GUGCCUUGCGCCGGGAAACCACGCAAGGGAUGGUGUCAAAUUCGGCGAAACCUAAGCGCCCGCCCGGGCGUAUGGCAACGCUGAGCCAAGCUUCGGCGCCUGCGCCGAUGGAGGUGUAGUGACUAGACGGCACCCACCUAAGGCGAACGUUAUGGUGAAGGCAUAGUCUAGGGAGGGGCGAAAGUCACACAAACCGG as the variant, how does the reverse-splicing fitness read?
Its reverse-splicing fitness is 0.00238.

With GUGCCUUGCGCCGGGAAACCACGCAAGGGAUGGUGUCAAAUUCGGCGAAACCUAAGCGCCCGCCCGGGCGUAUGGCAACGCUGAGCCAAGCUUCGGCGCCUGCGCCGAUGGAGGUGUAGUGACUAGACGGCACCCACCUAAGGCGAACGUUAUGGUGAAGGCAUAGUCCAGGGAGAGGCGAAAGUCACACAAACCGG as the variant, how does the reverse-splicing fitness read?
Its reverse-splicing fitness is 0.00999.

With GUGCCUUGCGCCGGGAAACCACGCAAGGGAUGGUGUCAAAUUCGGCGAAACCUAAGCGCCCGCCCGGGCGUAUGGCAACGCUGAGCCAAGCUUCGGCGCCUGCGCCGAUGGAGGUGUAGUGACUAGACGGCACCCACCUAAGGCGAACGUUAUGGUGAAGGCAUAGUCCAGGGAGCGGCGAAAGUCACACAAACCGG as the variant, how does the reverse-splicing fitness read?
Its reverse-splicing fitness is 0.0134.

With GUGCCUUGCGCCGGGAAACCACGCAAGGGAUGGUGUCAAAUUCGGCGAAACCUAAGCGCCCGCCCGGGCGUAUGGCAACGCUGAGCCAAGCUUCGGCGCCUGCGCCGAUGGAGGUGUAGUGACUAGACGGCACCCACCUAAGGCGAACGUUAUGGUGAAGGCAUAGUCCAGGGAGGGGCGAAAGUCACACAAACCGG as the variant, how does the reverse-splicing fitness read?
The reverse-splicing fitness was 0.00327.

With GUGCCUUGCGCCGGGAAACCACGCAAGGGAUGGUGUCAAAUUCGGCGAAACCUAAGCGCCCGCCCGGGCGUAUGGCAACGCUGAGCCAAGCUUCGGCGCCUGCGCCGAUGGAGGUGUAGUGACUAGACGGCACCCACCUAAGGCGAACGCUAUGGUGAAGGCAUAGUCAAGGGAGUGGCGAAAGUCACACAAACCGG as the variant, how does the reverse-splicing fitness read?
Its reverse-splicing fitness is 0.00248.
